Laboratory results taken from paper PMC2794542.

Biological target: full length LRRK2, FLAG-tagged and V5-tagged copies co-expressed (human) (UniProt Q5S007)
Experiment: co-IP; 293T cells co-transfected with FLAG- and V5-LRRK2; gel filtration fractions 20-23 (α-complex, ~600 kDa) pooled, immunoprecipitated with anti-FLAG, blotted with anti-FLAG and anti-V5, densitometry
Settings: remark: other sources report otherwise

## full length LRRK2, FLAG-tagged and V5-tagged copies co-expressed, Q5S007 1-2527
  ratio of FLAG-LRRK2 to V5-LRRK2 in the anti-FLAG IP: 1.87
  stoichiometry N: 2
